Measured values reported in the supplement of paper PMC12636428.

System: Saccharomyces cerevisiae
Assay: transcriptional activation domain activity (GFP:mCherry ratio, weighted mean of sorted bins, harmonized to initial dataset scale) (arbitrary fluorescence ratio units); higher = stronger transcriptional activation
Conditions: beta-estradiol 1 µM; induction time 4 h
How it was run: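 The activation activity of each tile is the read-weighted mean of bin median fluorescence, averaged across its barcodes and mapped linearly onto the scale of the initial dataset. Tiles were fused to an estradiol-inducible synthetic transcription factor, barcoded, and integrated at URA3 in yeast diploids carrying a GFP reporter. Induction used 1 uM beta-estradiol in SC for 4 hours at 30 °C, after which cells were sorted into 8 GFP:mCherry bins, and any tile with fewer than 50 reads was dropped.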

Sequence	transcriptional activation domain activity
WPFDESIERNFSTTATAATGESKFDINDNCNRINSKSYSKTNSMNGNGMNNSN	28400
WPWTFWPWTFWIFWTFWTFGLFGLFGLFGLGLFGLFGLFGPLDFLDFLDLWTF	42000
WQTALVHKHAQRVIHSTLEVVDQLVPKHYDHQLLRRCWGALNLIMTYVSFMCV	41400
WRGRLVQRRSNDHEIDFVPYKTIYGGFWSHVNPSRLAVPRYLNIFRIIVWLFF	54400
WRHLFLGQLPLLMSEPFTNSTPIIDPLLNNDFELIDFEVNLMKYLQSKDQQLS	117000
WRILLIVHLFGPFSLVDELLLPFKSSTSIFLFGILYIYCLFVLFLAYMILSIL	32600
WRKQWLVPLLIRYFNQMVLTLIRWFPLRCLYYTLIKGQAYEGLNKEYDADGIH	58300
WRLYMAFRTLKGKLLPCLIEANGLDLFISTFAAIVERVAEVSNLRLTSKLYQA	44900
WRVLSVFAVFNLGPYVFSLILYSSNAFLYTQWLSFTAVCLISLANVILFRFLL	43700
WRYGKCQVCGYVMINYPGPNQRHHCLEGRVRTVYNTVTFPCYLEVHVVQMIWL	60800
WSFLSFSFLPFPLSSFLLLSYPPPSFFLLPPSPFFFAVLLHLFTLLLFSLLLL	63900
WSHPLRMTYFLVLVFFSCTWVGGVLRRGWGYLVLNAFCRHSYICGVCCIHYLS	18800
WSILYLLCEVYARLLLTLSDDEFLSHAGNPLSLKQVIELTRQLKNLSFVLFWR	70700
WSSYTGPILSPGFSDLDWAPDPSNTTSGNLFIDLWPTWLSWMPDSTVLFTPWG	49900
WSVFFFFFFFFCLNLSVLWLWFFRLFFFFFFLCAFDVLCLPLSCPPLFRPKAT	48200
WSVLLCFAVSFFSFSFLSFWAVTALCYGFVFVFFILLCVLCCFSFAFSHVYLF	49600
WSVMSCLYLVVRYFGIFLALLCGFWGGLLYIPESVSYGLIVLIEWGFSVYFWF	41400
WSVVFPLQEEEKKKNEEEGLAFPSLDNIKGILRPDSCMRLGSSANIVVLTFPD	53600
WTCVRRPGGLGGFFFGTWTGWQIWVGLLVFWVGGCTFGLLLMNRFLLLTGVYK	42000
WTGWEGGRYLPFFFFPFFFFFATCCFSLFMILFFVFFFPGRISISFRLLLFFL	43000
WVLNVHLCLFYLAAFGDSAFNVISAIRKLSELPFSYSLYLFAWLFISWDLLFV	70500

Sequence	transcriptional activation domain activity
WVMYVIFITVGWYAMVTGQSIVLYSRLHLVVNSIKVLRFVLILICVDVVILHV	67500
WWGDTYFLFFPCLMYKFHVGFCLYMKWEMLYLLLFGRACDVFIMIGVVAVHVL	62400
WWLLGDSYESEIISLVILFQFWNNGALVNFGSAFRQAWWRNYLLVFVWSCFFI	17800
WWLRINLNICISYWIVATGVVVVYDWVLTLYGACQILLVMQMFVLGPCLILSV	46900
WWLVKVTVSVLWVLDTFDMCLIFHILYWYLIINYGNPLSLANPIWSIILHVLV	64800
WWMYLPLLLLLVLMFAPHYSILVLLVSYYLNIHDSPFLFSLHLFVIYLITFLA	58200
WYAPDAGGSVYDYITLTAGLDALNCAQKVRISPLLIVLLRNFAVRCLLSKGSL	52300
WYGFLVTWGLLVLFIICFYFFISVSCCAFCVLFSSTWSFGRLFLLTFPLILLL	41700
WYHHVPLCILVLLLLAPHPSILYVLLNYHYLTLHATHYFIVHLLTIYAFSFLA	45900
WYHYLPLCGTIFLILLPQPSWLWILVDFHLQTLHRPGLFIIHLLVSYTLIFMI	38500
WYTTISSTGLLSLLLYSLPFQPARLWVLGGILYIFSLVSFCALLLVHLVRFLV	47500
WYWLATTMYFLYGESVIYYFKHVVLVDKVLLPLATHHRFISFMLYIIGFVFFV	60400
YAASSASPAPPRKYPPARKASPSPSPTPPRTRKSSASALRRPASTPTPPAPSP	23200
YADMLMRIWSVWEFALWQYVSNEEFMGLLGFSRLRFRRMYLLVNNGCLFWRIF	72400
YADWLLEPEQNNGTWVADVLWPAINLDLQWISSHWNQSSWDLWWPPVWGGSYW	67800
YADWLLEPEQNNGTWVSDVLWPAINLDLQWISLHWNESSWDLWWPPVWGGSYW	52100
YAEWLIEPEQNNGTWVADVLWPAINLDLQWISLHWNQSSWDLWWPPVWGGSYW	53200
YAEWLLQPEQHNGTWVADVLWPAINLDLQWISQHWNESSWDLWWSPVWAGSYW	66400
YAILYFLFFGAWGLRIMSHLPSWWYNCPQFWIDYPHWQMTPELKCYYLMQASY	73600
YALEWNGLVVRSFAYHTVFGIAKVGFFLYHFLFSSFVFSLLLSLVIFFFFFFF	32600
YALIHFFRLYRSGHGPIRMFFLHIQALYNLFNLVFSWFALANLWLAFSIIIRL	75800

Sequence	transcriptional activation domain activity
YASVLSLIMFFPLPFLSGEILDISRNCYILDVFFHWLMVVCGGLGSWAVFWST	78700
YAVPNDFVVTGGLLLLRYDRLNELPLGTRANSSVLVCVYRTWIALMRYLLAGP	62800
YCAINCGGIDGLSLFMKIQWIANLDYLDIELLFGGIYYYFVCLLLVLLLLLWL	42700
YCDAKPGHSLVFAGHAGELELYLDKSCDADSIMTRENLGSLNRFVRLLLLLAK	38300
YCGDDMHSLRIVVAVLALLTTLKSIHAFAIVWVQSIVHFGDLQGAILLNYTAW	76900
YCGSLGCMILVAGIKLLRLLKHHLTVQRALRSNIGKIKAGMLKVKIIMIVGCV	66400
YCLLYWVWWFLAFSCWVFCLIYIFAIHCLIWVLVWLSVCFLLMGGYLFFCKED	30600
YDGGRLIVAIPFVCKVLEQAGRSTVFKPPNPWLMAVVRVLVELYKFAELKLNL	53800
YDILKCVLPCIVQLLPRNSPLVHCIRAYQCYRIMIGLQCMTERRLKHLQELIK	44800
YDIVCQWWRNLVDRLKELPPLVRISLILELCQFVIPKMHIHSHTLLCQLLFSL	59100
YDKKTNVLGFDDGTFDNKVFNRTNFEEKAPFDIPLDEFFTELEKHSNVSQFNT	112000
YDLLSVKDLHIQDRLLSARIVLSDISFLKRILMLLGVPDGLSSRLVSHLWCAV	58400
YDTPSLQMMTIHKSFFGIVNDDTFHWKGLSKLSLDSVPGCRLLSILLLCSATL	73200
YEASNHPEFDLNADVGLVIQVLEQTHSHTPIKLCSLIVKLQVVSGFLSYLESD	32800
YECALGIYSCVSFFVGVFYYIFIIFLSPIIFILLIILPLRISFVLCMAILLFG	28600
YEHSFEIWLACTVVFPGAGNIGFTLLEYRLGHRSLASSFFENITWIPFFFFFF	53900
YEIKRRLQVCRAVLDEHINPYEFKHHTVYREALLKLMYFHCVISLRLVLSWTD	65300
YETRPHAHVQEAVLTNRLTSAALYNPGRIAVLPLVCVWRDERTVVVFVHLVLT	21400
YFEIAGLTFFFYWYFYLLVGGIDCAWNKFVYVMVSHMSTMIVHVQITLSHFAM	32700
YFILFPFHHFLSPSLHSAPAFWCTLLLFTYVLVFFFGTLYHMVMFCFVCLFIC	94500
YFLAKMLLVWIVLALQTCEVSFSFVDTEHAYRGGVLRFVETLVKWAMEQNMSH	45400

Sequence	transcriptional activation domain activity
YFLGIFMYFLYGESVIYYFKHVLLVDRILLPLATHHRFISFMLYLIGFVFFVG	65800
YFLLSILFFFFSNNFTFTLLYLLHASYHIQSLYRHILVSVFCNYPSLLLFFFL	53000
YFMVYFIFYRNLFARLRSFDQFALVQLMSSFWVCIWYPFSMTSLCHRVVQYFN	69300
YFRAEAMKTFFSRNYWQLEVRLYVPTKRKGIFHGKDWRINVLLGMWWVVVHIA	55100
YFVLLPPTFILLAFPLLVWEFCWLSSSDFLCLLSMGFLFISLSFFFFFFLGNW	40400
YFVVRGFLFSSAVGCLGLRLGLGLFKRVIYWDQKLLLFLFLFPFFFPPLFSTR	60900
YFVYLLQLIYYICFSIGVSFSMKVFDYVTFMDSITGHAGHMLCVCIFFLIGAV	75800
YFWVLGAIPYFVFHSAFCLLWSLFFWFSCWYLSFKILLFRCFFFLFYYSMPSQ	55200
YFYGLERRHVTCSQLAYYLCDKALTPMFCGGRVGNDCFDPWGRLLTYWCFLPL	77300
YFYMRLISCLGLIAHSPMLWATGHNSARHELIQKMDFFPKRIGYLLSRLCVLI	51600
YGADDFFFPPEGCDNNMLYPQTATSWNVLPPQAMQPAPTYVGRPYTPNYRSTP	71900
YGALGDNTVTLRRPDDSDIVVLFDDMVVHAWIKMLIVAKLICCVILRRTAALG	46500
YGARPAAAAEEEEAAEPAEEEAAGEATEAEAGEEEAEATGEEETAEGEGAEGA	25500
YGCNELIFNPLIDWWRKGPITRQLRTFMWSDAPLHYKIGMLSYMFSYYALSGA	36300
YGFGGFLSVPLLFFIAFEFPRLHSLLYQLYLFVCVWSWAYYSTIIMFSCHFYP	57500
YGILTLQYLVGVIWVLDTLHTIFVTHMVYTYLVTNFGDYLALGHNIWSFNLHV	37100
YGLIYSILLHLCAVFISSLRRLTVLRELLRMLFLFSCFWFAVSISYMSVLYTI	49300
YGVHLLARFAWWFPSMSAIIAKLEGTINKLHILSHKELCQIIHNLNWLLYVGL	71400
YGVPIPQNSPATTTNLSGSVDEPQYQRRNIDFVRYDEEYVYHEDMDDELTMLH	28400
YHALKVYRGLGLLLVNGVTGICLSICVIVVACFGHFHFSPYWVLQWAVMSRIV	63500
